B1: TFE3 (parent)
chain: ELPNIKREISETEAKALLKERQKK
B2: SMG5 (parent)
chain: TNPDLIIVCAQSSQSLWNRLSVLL

Variants of: B1
Test: protein stability index of a GFP-peptide fusion (GPS, HEK-293T) (PSI 1-6); higher = more stable
Details: c terminus: a fixed tail appended
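Further: lentivirally expressed fusions sorted by FACS into six bins by GFP to DsRed ratio, PSI derived from sequencing read proportions per bin multiplied by bin number.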

Protein stability index, by site and new letter:
E1: T 3.6; Q 2.99; W 3.01; C 3.12; P 4.81; N 2.75; H 2.66; I 3.59; L 2.29; K 3.13; Y 2.82; R 3.51; G 4.65; A 3.19; V 3.57; D 2.65; S 2.87; M 2.39; F 2.21
R7: A 2.55; M 2.63; I 3.2; C 2.97; K 2.44; Q 2.4; W 2.84; G 2.2; N 2.58; H 3.27; F 2.44; L 2.68; D 2.95; V 2.46; S 2.49; T 3.51; P 4.86; E 2.46; Y 2.81
S10: F 2.65; D 2.53; G 3; A 2.23; E 2.15; C 3.2; H 2.82
I5: M 2.23; R 4.4; E 5.37; V 3.94; L 3.34; S 4.98; K 4.58; A 4.81; G 3.46; Y 4.3; D 5.33; C 3.53; T 4.7; W 3.93; P 4.91; F 4.05; H 4.61; N 4.22; Q 4.38
I9: H 5.21; C 3.74; M 2.25; Q 4.83; Y 4.34; D 5.15; E 5.1; N 3.19; F 4.51; G 4.67; P 5.1; R 3.88; L 2.66; A 4.71; V 3.64; W 4.13; S 4.68; K 4.95; T 4.49
E8: F 3.52; A 2.49; W 2.21; D 2.69; V 3.43; R 4.32; N 3.46; G 3.09; T 3.46; Q 3.34; S 3.69; P 4.31; Y 3.68; L 3.6; C 3.4; H 3.31; M 3.32; I 3.39; K 4.06
K6: L 2.83; A 2.95; F 2.79; Q 2.45; M 2.75; G 2.81; C 2.33; V 2.24; E 4.11; N 2.81; W 2.01; Y 2.65; I 2.04; R 2.02; D 4.36; P 3.89; T 3.05; S 2.5; H 2.49
N4: C 2.32; Q 2.02; F 3.14; A 2.88; M 2.83; W 3.35; Y 3.29; G 3.62; P 3.76; T 3.33; L 3.34; I 3.85; V 3.86; D 2.75; H 2.84; E 3.9; S 3.23; K 2.78; R 2.34
P3: H 2.57; A 2.6; Q 2.98; R 3.75; E 3.17; F 2.84; K 3.82; Y 3.04; M 1.93; N 4.13; T 3.57; C 2.43; I 1.34; W 2.43; G 3.5; L 2.02; S 3.44; V 2.32; D 2.89
L2: P 5.74; V 1.95; C 3.5; F 4.29; T 4.71; A 4.75; E 5.33; S 5.39; I 2.19; Y 4.18; N 5.12; Q 3.88; H 4.51; K 5.08; M 2.84; D 5.49; G 5.23; R 3.94; W 3.96

Variants of: B2
Test: as above
Details: c terminus: a fixed tail appended

Protein stability index of substitutions, site by site:
S21: T 3.07; Q 2.87; R 2; L 2.07; G 3.14; Y 3.25; A 3.16; M 1.58; H 2.52; P 2.6; E 3.57; N 3.04; K 2.19; V 2.88; W 2.75; I 3.08; C 2.21; F 3.03
L24: D 2.8; M 3.19; F 2.86; N 2.45; E 3.27; Y 1.85; H 2.54; Q 1.92; A 2.73; P 1.38; W 2.26; V 3.05; S 1.38; G 2.84; R 1.93; T 2.64
L20: K 2.77; H 1.7; M 2.24; Q 2.08; I 2.41; A 2.15; G 2.45; F 1.81; T 2.02; P 2.92; S 2.19; V 1.7; N 3.27; Y 2.11; D 1.83; C 2.88; E 3.06; W 3.72
V22: W 1.24; H 1.84; F 2.52; A 2; K 2.17; L 3.21; S 2.36; T 2.99; R 2.23; N 1.58; E 1.91; Q 1.65; G 1.81; P 2.62; C 3.03; M 2.98; Y 1.91; I 4.58; D 2.03
W17: T 2.58; P 2.82; Q 1.9; C 4.36; E 3; M 3.06; D 1.77; I 2.47; F 3.58; Y 2.88; S 3.57; K 2.05; V 2.79; A 4.21; L 3.96
L16: D 3.33; K 3.19; W 1.93; P 3.37; H 3.7; S 2.53; E 2.42; A 2.1; I 2.02; M 3.23; R 2.94; N 2.81; T 3.24; F 3.11; Q 2.55; C 2.91; Y 2.81; V 1.51
N18: E 1.56; K 2; Y 3.31; A 3.11; Q 2.4; L 5.57; R 1.49; P 3.09; V 1.91; I 2.43; H 2.56; W 1.92; T 2.56; D 2.97; G 2.69; C 2.27
R19: K 2.5; E 3.19; V 1.86; I 1.75; C 2.09; D 3.35; M 2.1; F 1.84; Q 2.95; W 2.23; L 1.57; H 2.54; S 2.06; P 3.09; G 3.61; Y 1.41; N 5.11; T 3.21; A 1.74
L23: V 2.8; C 3.62; S 2.68; F 2.33; G 3.55; E 2.75; A 1.84; K 1.99; R 2.83; N 3.27; D 1.73; P 3.47; I 2.27; H 3.59; W 2.85
S15: W 1.76; Y 2.49

Source: the supplement of paper PMC10567573
